Results published in patent publication US20180355061A1 (Janssen / Centocor, published 2018).
Changes are numbered by the printed parent chain.

Assays:
[1] = biological target: T1, human PD-1 expressed on cells (human, UniProt Q15116 25-288); test: cell-based or functional assay
[2] = biological target: T2, human PD-1 (soluble analyte in SPR) (human, UniProt Q15116 25-170, limits assumed); test: SPR (ProteOn XPR36), mAb captured on anti-human IgG Fc, PD-1 as analyte, 25 C
T2 construct: also called CD279; PDCD1
T2 sequence (Q15116 25-170 limits assumed): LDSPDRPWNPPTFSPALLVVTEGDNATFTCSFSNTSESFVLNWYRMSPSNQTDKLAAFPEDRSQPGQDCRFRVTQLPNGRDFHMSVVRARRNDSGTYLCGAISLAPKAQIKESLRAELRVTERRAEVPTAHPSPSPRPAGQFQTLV
Experimental: (§1) Affinity measurements were performed using a ProteOn XPR36 system (BioRad). […] Approximately 5000 RU (response units) of mAbs were immobilized. The kinetic experiments were performed at 25° C. in running buffer (DPBS+0.01% P20+100 μg/mL BSA). To perform kinetic experiments, 200 RU of mAbs were captured followed by injections of analytes (human and cyno PD-1) at concentrations ranging from 1.563 nM to 400 nM (in a […] serial dilution). The association phase was monitored for 3 minutes at 50 μL/min, then followed by 10 or 15 minutes of buffer flow (dissociation phase). The chip surface was regenerated with two 18 second pulses of 100 mM H₃PO₄ (Sigma, Cat #7961) at 100 μL/min.
(§2) The collected data were processed using ProteOn Manager software. First, the data was corrected for background using inter-spots. Then, double reference subtraction of the data was performed by using the buffer injection for analyte injections. The kinetic analysis of the data was performed using a Langmuir 1:1 binding model. The result for each mAb was reported in the format of ka (On-rate), kd (Off-rate) and KD (equilibrium dissociation constant).
Affinity of the parental and humanized antibodies to PD-1 was measured using SPR as described in Example 1.

[3] = biological target: T1, human PD-1 expressed on cells; test: cell-based or functional assay; remark: listed apart in the source
[4] = biological target: T1, human PD-1 expressed on cells; test: cell-based or functional assay; remark: listed apart in the source
[5] = biological target: T1, human PD-1 expressed on cells; test: cell-based or functional assay; remark: listed apart in the source
[6] = biological target: T3, cyno PD-1 (soluble analyte in SPR) (cyno); test: SPR (ProteOn XPR36), mAb captured on anti-human IgG Fc, cyno PD-1 as analyte, 25 C
T3 construct: also called cynomolgus PD-1
Experimental: as §1, §2
(§3) Affinity of the antibodies to human and cyno PD-1 was measured using SPR as described in Example 1.

[7] = biological target: T2, human PD-1 (soluble analyte in SPR); test: SPR (ProteOn XPR36), mAb captured on anti-human IgG Fc, human PD-1 as analyte, 25 C
Experimental: as §1, §2, §3

T1 sequence (Q15116 25-288 limits assumed): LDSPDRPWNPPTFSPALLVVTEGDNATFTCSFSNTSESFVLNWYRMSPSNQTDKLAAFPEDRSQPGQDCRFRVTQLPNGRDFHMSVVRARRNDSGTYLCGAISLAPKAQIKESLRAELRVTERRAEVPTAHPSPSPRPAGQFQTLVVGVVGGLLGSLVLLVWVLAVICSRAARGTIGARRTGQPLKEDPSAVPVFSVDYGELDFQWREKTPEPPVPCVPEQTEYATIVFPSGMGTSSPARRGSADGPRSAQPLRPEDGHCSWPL

B1: PD1B878 (antibody, human IgG1, kappa, V domains shown)
VH: QVQLVQSGSELKKPGASVKVSCKASGYTFTDYSMHWVRQAPGQGLEWMGWINIETGEPTYAQGFTGRFVFSLDTSVSTAYLQISSLKAEDTAVYFCARDYYGTYFYAMDYWGQGTLVTVSS
VL: EIVLTQSPATLSLSPGERATLSCTASSSVSSSYLHWYQQKPGLAPRLLIYSTSNLASGIPDRFSGSGSGTDYTLTISRLEPEDFAVYYCHQYHRSPLTFGQGTKLEIKR
notes: C84S variant of PD1B743, IgG1; also called VH PD1H405; VL PD1L469
- % inhibition of activated T cells, CMV-PBMC assay, donor D1 [1]: 78.3%
- Kd [2]: 58.9 nM
- koff [2]: 0.00351 s⁻¹
- kon [2]: 59800 M⁻¹ s⁻¹

B2: PD1B743 (antibody, human IgG1, kappa, V domains shown)
VH: B1 VH with S84C
VL: B1 VL
notes: Humanized PD1B505, IgG1; also called VH PD1H384; VL PD1L469
- mean % inhibition of T cell proliferation, CMV-PBMC assay (FIG. 5B) [3]: 58%
- % inhibition at 10 ug/ml mAb, CMV-PBMC assay, donor D4 [4]: 30.5%
- % inhibition at 10 ug/ml mAb, CMV-PBMC assay, donor D5 [4]: 64%
- Kd [2]: 32.8 nM
- koff [2]: 0.003 s⁻¹
- kon [2]: 91500 M⁻¹ s⁻¹

B3: PD1B1090 (antibody, human IgG1, kappa, V domains shown)
VH: B1 VH with E57Y
VL: B1 VL with V29F
notes: also called VH PD1H585; VL PD1L651
- Mean % inhibition across two donors, CMV-PBMC assay [5]: 74.8%
- Kd [6]: 1.43 nM
- koff [6]: 0.000185 s⁻¹
- kon [6]: 130000 M⁻¹ s⁻¹
- Kd [7]: 0.223 nM
- koff [7]: 2.37e-05 s⁻¹
- kon [7]: 106000 M⁻¹ s⁻¹

B4: PD1B1086 (antibody, human IgG1, kappa, V domains shown)
VH: B1 VH with E57H
VL: B1 VL
notes: also called VH PD1H586; VL PD1L469
- Mean % inhibition across two donors, CMV-PBMC assay [5]: 72.7%
- Kd [6]: 31.8 nM
- koff [6]: 0.00544 s⁻¹
- kon [6]: 171000 M⁻¹ s⁻¹
- Kd [7]: 3.19 nM
- koff [7]: 0.000394 s⁻¹
- kon [7]: 124000 M⁻¹ s⁻¹

B5: PD1B1094 (antibody, human IgG1, kappa, V domains shown)
VH: B1 VH with E57H
VL: B1 VL with S30P
notes: also called VH PD1H586; VL PD1L652
- Mean % inhibition across two donors, CMV-PBMC assay [5]: 77.9%
- Kd [6]: 12 nM
- koff [6]: 0.00162 s⁻¹
- kon [6]: 135000 M⁻¹ s⁻¹
- Kd [7]: 0.871 nM
- koff [7]: 9.16e-05 s⁻¹
- kon [7]: 105000 M⁻¹ s⁻¹

B6: PD1B750 (antibody, human IgG1, kappa, V domains shown)
VH: QVQLVQSGAEVKKPGASVKVSCKASGYTFTTYWMHWVRQAPGQGLEWMGEINPNNGGINYAQKFQGRVTLTVDKSISTAYMELSRLRSDDTAVYYCTIDYYDYGGYWGQGTLVTVSS
VL: DIQMTQSPSSLSASVGDRVTITCKASQNVGTNVAWYQQKPEKAPKSLIYSASYRYSGVPSRFSGSGSGTDFTLTISSLQPEDFATYYCQQYNIYPYTFGQGTKLEIKR
notes: Humanized PD1B506, IgG1; also called VH PD1H388; VL PD1L470
- mean % inhibition of T cell proliferation, CMV-PBMC assay (FIG. 5B) [3]: 65.9%
- % inhibition at 10 ug/ml mAb, CMV-PBMC assay, donor D4 [4]: 24.2%
- % inhibition at 10 ug/ml mAb, CMV-PBMC assay, donor D5 [4]: 75%
- Kd [2]: 23.2 nM
- koff [2]: 0.00832 s⁻¹
- kon [2]: 359000 M⁻¹ s⁻¹

B7: PD1B756 (antibody, human IgG1, kappa, V domains shown)
VH: QITLKESGPTLVKPTQTLTLTCTFSGFSLSTSGMGVSWIRQPPGKALEWLAHIYWDDDKRYSPSLKSRLTITKDTSKNQVVLTMTNMDPVDTGTYYCVRKGYYDYGYVMDYWGQGTLVTVSS
VL: DIVMTQSPLSLPVTPGEPASISCRSSKSLLHSNGITYLNWYLQKPGQSPQLLIYQMSNLASGVPDRFSGSGSGTDFTLKISRVEAEDVGVYYCAQNLELPLTFGGGTKVEIKR
notes: Humanized PD1B512, IgG1; also called VH PD1H389; VL PD1L472
- mean % inhibition of T cell proliferation, CMV-PBMC assay (FIG. 5B) [3]: 36.7%
- % inhibition at 10 ug/ml mAb, CMV-PBMC assay, donor D3 [4]: 27.4%
- % inhibition at 10 ug/ml mAb, CMV-PBMC assay, donor D4 [4]: 0.3%
- % inhibition at 10 ug/ml mAb, CMV-PBMC assay, donor D5 [4]: 69.3%
- Kd [2]: 18.1 nM
- koff [2]: 0.00214 s⁻¹
- kon [2]: 118000 M⁻¹ s⁻¹
